Data as given in patent publication US20190134214A1, “GLP-1 Receptor Ligand Moiety Conjugated Oligonucleotides and Uses Thereof” (published 2019).
Square brackets hold non-standard residues; d marks the D form. Ends that are not written are not given here. Aib = CC(C)(N)C(=O)O

B1: GLP-1 peptide conjugated ASO targeted to FOXO1 (ION 913193) (peptide)
peptide: H[Aib]EGTFTSDVSSYLEEQAAKEFIAWLVKGGPSSGAPPPSC-NH2
modifications: not fully specified (residue 40); also: Cys40 disulfide via 3-mercaptopropionate linker to 5'-hexylamino ASO ION 913192
B2: GLP-1 conjugated MALAT1 ASO (ISIS 816385) (peptide)
peptide: H[Aib]EGTFTSDVSSYLEEQAAKEFIAWLVKGGPSSGAPPPSC-NH2
modifications: not fully specified (residue 40); also: Cys40 disulfide via 3-mercaptopropionate linker to 5'-hexylamino ASO ISIS 786434
B3: 5'-GLP-1 peptide conjugated ASO targeted to MALAT1 (ION 962963) (peptide)
peptide: H[Aib]EGTFTSDVSSYLEEQAAKEFIAWLVKGGPSSGAPPPSC-NH2
modifications: not fully specified (residue 40); also: Cys40 disulfide to 3-mercaptopropionate linker

Columns and labels:
[1] = target: GLP-1 receptor of mouse primary islets of Langerhans (mouse, UniProt O35659); experiment: cell-based or functional assay
[2] = target: FLAG-tagged GLP1R, stably expressed in HEK 293 cells (LVX-GLP1R cells)
[3] = target: FLAG-tagged GLP1R, stably expressed in HEK 293 cells (LVX-GLP1R cells); remark: listed apart in the source
[4] = target: human GLP-1 receptor (hGLP1R), stably expressed in HEK293 cells (hGLP1R-HEK) (human, UniProt P43220); experiment: cell-based or functional assay

| Binder | Islet FOXO1 mRNA levels relative to control (RPLP0), percent of untreated, 96 hours, 1 µM [1] [%] | IC50 of peptide-conjugated ASO activity (MALAT1 RNA) in LVX-GLP1R cells [2] [nM] | IC50 of MALAT-1 expression in GLP1R HEK cells [3] [nM] | IC50 of inhibition of MALAT1 mRNA in hGLP1R-HEK cells [4] [nM] |
| --- | --- | --- | --- | --- |
| B1 | 25 |  |  |  |
| B2 |  | 350 | 260 | 20 |
| B3 |  |  | 350 |  |
